Assay results as given in patent US20150342943A1, “METHODS OF TREATING LIVER DISEASE” (Gilead Sciences, Inc., priority 2014, published 2015).

Legend:
primary human HSCs [1] = test: α-SMA Assay in TGF-β-stimulated hepatic stellate cells; assay type: cell-based; details: 24 h, read-out: α-SMA Assay EC50
Description: For quantification of α-SMA protein expression, HSC's were plated at a density of 10,000 cells/well in collagen coated 96-well plates (BD-Biosystems). […] HSCs were fixed in 4% PFA, permeabilized in 0.02% Triton-X-100, blocked for 30 min. and stained with an anti-α-SMA specific antibody (Sigma) and a flourescently labeled secondary antibody (Invitrogen). α-SMA expression was quantified on a fluorescent plate reader.

primary human HSCs [2] = test: Collagen Assay (Sircol) in TGF-β-stimulated hepatic stellate cells; details: read-out: Collagen Assay EC50
Description: Collagen synthesis, α-SMA (smooth muscle actin) expression, and changes in transcript expression were measured in response to stimulation from ROS (reactive oxygen species) and TGF-β.
Commercially available primary human HSCs (Sciencell) were plated at a density of 250,000 cells/well on 12-well plates (Corning). HSCs were co-stimulated with 5 ng/mL TGF-β+/− ASK1 inhibitor compounds. Collagen production was assessed by Sircol Assay where extracellular collagen was digested with pepsin, followed by acid extraction, neutralization, and colometric quantification using the Sircol assay kit according to the manufacturer's protocols (BioColor).

HSCs = test: Quantitative RT-PCR of TGF-β1-induced gene transcription in HSCs; assay type: cell-based, human; details: pre-treated HSCs, TGF-β1 5 ng/ml for 48 hrs
Description: For gene expression assays, RNA was isolated using commercially available kit (Qiagen Midikit), converted to cDNA (Retroscript Kit, Ambion) and tested for expression of genes involved in fibrosis with human probes on ABI 7300 (Applied Biosystems). All assays were performed in triplicate.
Quantitative RT-PCR was used to determine the effects of compounds to inhibit TGF-β1-induced gene transcription of αSMA, COL1α1, […], and lumican.

Mdr2^−/− BALB/c = test: Interventional PSC model; assay type: in vivo, mice
Description: Control groups received treatment with either vehicle or an unrelated isotype-matched control IgG (i.e. a murine IgG1). Portal venous pressure
(PVP) was measured invasively by direct cannulation of the portal vein with a micro-tip pressure monitor at the end of the study. Liver fibrosis was evaluated by histology, biochemical determination of collagen and analysis of profibrogenic gene expression by qRT-PCR.

[3] = system: TAA-induced liver fibrosis; test: TAA-induced liver fibrosis; details: in vivo
male C57BL/6 mice = test: Interventional NASH model (treatment from day 240 of high fat, high cholesterol, high sugar diet); assay type: in vivo
Description: Liver homogenate (1.5 mL) was transferred to 1.5 mL Eppindorf tubes and centrifuged at 14,000 rpm for 10 min. Supernate was transferred to 96-deep well plate and diluted 1:1 with 4 M HCl. HYP levels were quantified using a commercially available hydroxyproline assay (Quickzyme Biosciences).
Commercially available high fat, high cholesterol, high sugar diet was administered continuously to 12 week old male C57BL/6 mice for 320 days. […] Animal cohorts (n=15) were sacrificed after 80 days of treatment. Collagen synthesis and hydroxyproline (HYP) were measured using D2O labeling. Second harmonic imaging was used to quantitate collagen morphometry.
Commercially available high fat, high cholesterol, high sugar diet was administered continuously to 12 week old male C57BL/6 mice for 320 days. […] At 80 days of treatment, collagen synthesis and HYP levels in each group (n=15) were determined using D2O labeling. […] Liver homogenate (1.5 mL) was centrifuged at 14,000×rpm for 10 min and the resulting supernate was d diluted 1:1 with 4 M HCl. HYP levels were quantified using a commercially available hydroxyproline assay (Quickzyme Biosciences).
In addition, immunohistochemistry and immunoblot analysis were used to characterize the levels of phospho-p38 (p-p38), phospho-JNK1 (p-JNK1), and phospho-MKK4 (p-MKK4) proteins.

Row | Molecule | EC50 (primary human HSCs [1]) | EC50 (primary human HSCs [2]) | TGF-β1-induced responses in RNA levels of αSMA, COL1α1, TIMP1, and lumican (HSCs) | reduction of hepatic collagen deposition (hydroxyproline levels) (Mdr2^−/− BALB/c; 6 weeks treatment, vs control group) | portal venous pressure (PVP) (Mdr2^−/− BALB/c; end of study, control 10.1±0.2) | fibrosis progression in Mdr2^−/− mice (Mdr2^−/− BALB/c; mouse, in vivo) | TAA-induced fibrosis progression [3] | synthesis rates of extracellular matrix proteins (Col1a1, Col1a3, and Col1a5) (male C57BL/6 mice; Example 3) | blood glucose and insulin levels (male C57BL/6 mice; additional studies) | relative hydroxyproline levels (male C57BL/6 mice; additional studies, FIG. 30)
1 | Cc1cc(F)c(C(=O)Nc2cccc(-c3nncn3C(C)C)n2)cc1-n1cnc(C2CC2)c1 [Compound 3] | 18.9 nM | 11.6 nM | blocked or inhibited |  |  |  |  |  |  | 
2 | AB0023: murine anti-LOXL2 antibody, heavy chain variable region SEQ ID NO: 15, light chain variable region SEQ ID NO: 16 (antibody, V domains shown, anti-LOXL2 antibody AB0023 heavy chain variable region; anti-LOXL2 antibody AB0023 light chain variable region) VH: MEWSRVFIFLLSVTAGVHSQVQLQQSGAELVRPGTSVKVSCKASGYAFTYYLIEWVKQRPGQGLEWIGVINPGSGGTNYNEKFKGKATLTADKSSSTAYMQLSSLTSDDSAVYFCARNWMNFDYWGQGTTLTVSS VL: MRCLAEFLGLLVLWIPGAIGDIVMTQAAPSVSVTPGESVSISCRSSKSLLHSNGNTYLYWFLQRPGQSPQFLIYRMSNLASGVPDRFSGSGSGTAFTLRISRVEAEDVGVYYCMQHLEYPYTFGGGTKLEIK |  |  |  | 38% | 8.36±0.23 mmHg | blocked | blocked | affected | did not affect | did not result in a decrease
